Measured values reported in patent CN117368459A (INST MILITARY MEDICINE ACADEMY MILITARY SCIENCES PLA, dated 2024).

Molecular target: 新冠病毒S1-RBD蛋白 (新冠病毒 (SARS-CoV-2), UniProt P0DTC2 319-541)
Assay: […] (BLI), […], antibody 118 nM to 1.88 nM, 1:1 model

B1: Nluc-chC25抗体 (antibody, human IgG1)
light: NIVLTQSPVSLAVSLGQRATISCRASESVDSYGNSFMHWYQQKPGQPPKLLIYIASNLESGVPARFSGGGSRTDFTLTIDPVEADDAATYYCQQNYEDPWTFGGGTKLEIKRADAAPSVFIFPPSDEQLKSGTASVVCLLNNFYPREAKVQWKVDNALQSGNSQESVTEQDSKDSTYSLSSTLTLSKADYEKHKVYACEVTHQGLSSPVTKSFNRGEC
heavy: not shown
notes: also called Nluc-chC25重组抗体; Nluc标记重组抗体
B1 gave a Kd of 0.0151 nM.

B2: HRP-chC25抗体 (antibody, human IgG1)
light: NIVLTQSPVSLAVSLGQRATISCRASESVDSYGNSFMHWYQQKPGQPPKLLIYIASNLESGVPARFSGGGSRTDFTLTIDPVEADDAATYYCQQNYEDPWTFGGGTKLEIKRADAAPSVFIFPPSDEQLKSGTASVVCLLNNFYPREAKVQWKVDNALQSGNSQESVTEQDSKDSTYSLSSTLTLSKADYEKHKVYACEVTHQGLSSPVTKSFNRGEC
heavy: not shown
notes: also called HRP标记重组抗体; HRP-2C5
Binder B2 has a Kd of 0.0375 nM.
